These results are taken from patent publication US20110218114A1, “NUCLEOTIDE TRIPHOSPHATE WITH AN ELECTROACTIVE LABEL CONJUGATED TO THE GAMMA PHOSPHATE” (priority 2007, published 2011).

What is called Km is the concentration of substrate that gives half-maximal velocity. For orientation: Vmax means the top rate of the reaction or transport when substrate is in excess.

Holding throughout (format): biochemical
For one assay, the target named is T1, Abl1-T315I (Homo sapiens, UniProt P00519, T315I).
T1 construct: purchased Cell Signalling Technology (MA, USA)
Briefly: Electrochemical (CV) Fc-ATP phosphorylation assay, substrate peptide immobilized on gold microelectrode, Abl1-T315I. The conditions noted are these: for phosphorylation of immobilized peptide by Abl1-T315I (anodic current response): control peptides, HeLa cell lysate, FIG. 12C. The protocol:
(§1) The covalent immobilization of substrate peptides on the gold microelectrode surface using succinimide-esters of lipoic acid included the following steps: (a) incubation of the bare gold microelectrode with 5 mM NHS-lipoic acid ester in ethanol for 15 h; (b) incubation of the N-Hydroxysuccinimide (NHS)-lipoic acid-modified surface with the substrate peptides in the presence of 2 mM N-(3-Dimethylaminopropyl)-N′-ethylcarbodiimide (EDC) in 0.1 M 2-(N-Morpholino) ethanesulfonic acid (MES, pH 6) for 2 h, (c) incubation of the peptide-modified electrodes with Mercaptopolyethylene glycol 5′000 monomethyl ether (PEG-thiol 5′000) solution (1:100 v/v) in ethanol for 10 min.
Abl1-T315I kinase assay buffer included 60 mM HEPES (pH 7.5), 5 mM MgCl2, 5 mM MnCl2, 3 μM Na3VO4, 400 μM ATP, peptide substrate (STP) and the kinase in a total reaction volume of 25 μL. Purified recombinant human Abl1-T315I mutant kinase and its substrate peptide Signal Transduction Protein (STP, EGIYDVP) were purchased from Cell Signalling Technology (MA, USA). The substrate peptide modified electrodes were incubated at 37° C. for 2 h. After following the same washing procedures as for CK2, the CV measurements were recorded using the same parameters as described above.
(§2) The electrochemical data from the CV measurements are obtained as charge density (J) per test. […] Here, the detailed description of the calculation procedure will be given for CK2-catalysed phosphorylation reactions. The reaction volume is 25 μL, which leads to 2.5 nmole Fc-ATP per test. Then, the specific electro-activity (SE) of Fc-ATP (J/nmole Fc-ATP) would be calculated as follows: […]
(§3) where V is the rate, V0 is the rate in the absence of the inhibitor, [I] is the inhibitor concentration and Ki′ is the apparent inhibition constant.
(§4) where [S] is the surface density of the immobilized substrate peptide and Km is the Michaelis-Menten constant. The surface density conditions of the immobilized substrate peptide were changed between 1, 5, 10, 15 and 20 pmol/cm2. The initial time dependence of the kinase reactions were determined at these varying peptide density conditions. The phosphorylation reaction was stopped after 5, 15, 30, 60, 90, 120 and 150 min, and the measurement of the attached Fc molecules was carried out. […] If the y is set for 0 and the equation is solved for x, x intercept becomes equal to −1/Km.

Another assay concerns the target T2, HER2/ErbB2 (Homo sapiens, UniProt P04626).
T2 construct: purchased Cell Signalling Technology (MA, USA)
The assay can be described thus: Electrochemical (CV) Fc-ATP phosphorylation assay, substrate peptide immobilized on gold microelectrode, HER2/ErbB2. The settings on record: for phosphorylation of immobilized peptide by HER2/ErbB2 (anodic current response): control peptides, FIG. 13C. Here is the method: as §1
(§5) The electrochemical data from the CV measurements are obtained as charge density (J) per test. The concentration of Fc-ATP for the kinase activity determinations was 100 μM, for CK2 and 200 μM for Abl1-T315I and HER2-ErbB2. Here, the detailed description of the calculation procedure will be given for CK2-catalysed phosphorylation reactions. The reaction volume is 25 μL, which leads to 2.5 nmole Fc-ATP per test. Then, the specific electro-activity (SE) of Fc-ATP (J/nmole Fc-ATP) would be calculated as follows: […]
(§6) The apparent inhibition constants Ki′ were determined by fitting equation (3) to the experimental data.
(§7) where V is the rate, V0 is the rate in the absence of the inhibitor, [I] is the inhibitor concentration and Ki′ is the apparent inhibition constant. The true inhibition constants Ki were calculated by correction of Ki′ according to Equation (4): […]
as §4

A further assay has as its target CK2α′ (Homo sapiens, UniProt P19784). Briefly: Electrochemical (CV) Fc-ATP phosphorylation assay, substrate peptide immobilized on gold microelectrode, CK2α′. Here is the method: as §1
(§8) The substrate peptide modified electrodes were incubated at 37° C. for 2 h.
as §5, §6, §7, §4

Another assay addresses CK2α (Homo sapiens, UniProt P68400). The assay can be described thus: Electrochemical (CV) Fc-ATP phosphorylation assay, substrate peptide immobilized on gold microelectrode, CK2α. Here is the method: as §1, §8, §2, §3, §4
Setting [1] is: HER2/ErbB2, immobilized substrate peptide, Lineweaver-Burk.
Setting [2] is: Abl1-T315I, immobilized substrate peptide, Lineweaver-Burk.
[3] abbreviates: CK2α′, immobilized substrate peptide, Lineweaver-Burk.

CK2α, sequence (P68400 whole entry): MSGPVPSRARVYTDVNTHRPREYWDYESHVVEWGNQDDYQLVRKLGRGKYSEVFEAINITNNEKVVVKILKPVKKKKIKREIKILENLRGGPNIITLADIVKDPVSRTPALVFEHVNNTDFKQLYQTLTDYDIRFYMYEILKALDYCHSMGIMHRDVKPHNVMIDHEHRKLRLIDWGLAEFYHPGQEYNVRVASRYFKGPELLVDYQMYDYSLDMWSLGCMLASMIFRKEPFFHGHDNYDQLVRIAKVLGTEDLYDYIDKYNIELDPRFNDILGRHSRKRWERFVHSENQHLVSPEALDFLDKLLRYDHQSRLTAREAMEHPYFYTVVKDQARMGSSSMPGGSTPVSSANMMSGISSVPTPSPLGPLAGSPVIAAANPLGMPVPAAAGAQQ
CK2α′, sequence (P19784 whole entry): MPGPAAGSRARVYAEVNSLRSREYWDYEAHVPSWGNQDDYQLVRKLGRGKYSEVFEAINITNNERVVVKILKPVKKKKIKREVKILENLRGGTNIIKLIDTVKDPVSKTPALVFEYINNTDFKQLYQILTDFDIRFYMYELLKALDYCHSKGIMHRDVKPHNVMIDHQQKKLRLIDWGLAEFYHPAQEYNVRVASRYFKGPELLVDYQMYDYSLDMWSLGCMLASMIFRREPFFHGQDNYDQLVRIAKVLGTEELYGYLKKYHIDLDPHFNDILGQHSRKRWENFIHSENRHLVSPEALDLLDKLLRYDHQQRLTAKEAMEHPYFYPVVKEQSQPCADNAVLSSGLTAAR

With `Brc1c(Br)c(Br)c2[nH]nnc2c1Br` [(1), 4,5,6,7-Tetrabromo-2-azabenzimidazole], the “inhibition of EGIYDVP phosphorylation (specificity control)” value against Abl1-T315I (EGIYDVP peptide exposed to inhibitor, FIG. 11C-b) is on record as “not inhibited”.
“DNEYFYV [FLT3 substrate peptide for HER2/ErbB2]”: in the assay with Abl1-T315I, the “phosphorylation of immobilized peptide by Abl1-T315I (anodic current response)” value is reported as “Low current responses”. The Vmax/Kmax with HER2/ErbB2 (HER2/ErbB2, immobilized substrate peptide) is listed as 7.41. For the same molecule, in the assay with HER2/ErbB2 (setting [1]), the Michaelis constant (Km) turned out to be 208 µM and the maximum rate (Vmax) stood at 1.54 µmol/min/mg.
On to “EGIYDVP [Abl1-T315I substrate peptide Signal Transduction Protein]”, for which the Vmax/Kmax with Abl1-T315I (Abl1-T315I, immobilized substrate peptide) was 9.18. Also, in the assay with Abl1-T315I (setting [2]), the Km worked out at 182 µM and the Vmax came out at 1.67 µmol/min/mg. Moreover, in the assay with CK2α′ (control peptide in presence of cell lysate, FIG. 10B-c), the “phosphorylation of immobilized peptide by CK2 (current response)” value is “did not catalyze phosphorylation”. For the same molecule, in the assay with HER2/ErbB2, the “phosphorylation of immobilized peptide by HER2/ErbB2 (anodic current response)” value is “slight increase in the current responses”.
As to RRRDDDSDDD [CK2 peptide substrate], the “phosphorylation of immobilized peptide by Abl1-T315I (anodic current response)” value with Abl1-T315I is “did not catalyze phosphorylation”; in the assay with Abl1-T315I (listed as CK2 substrate peptide) it was “No significant current responses”. In addition, the Vmax/Kmax in the assay with CK2α is 22.64; with CK2α′ (CK2α′, immobilized substrate peptide) it was 18.16. Further, the Km in the assay with CK2α (Lineweaver-Burk) amounted to 87 µM; with CK2α′ (setting [3]) it was 98 µM. For the same molecule, the Vmax in the assay with CK2α (Lineweaver-Burk) is 1.97 µmol/min/mg; with CK2α′ (setting [3]), 1.78 µmol/min/mg. Moreover, in the assay with HER2/ErbB2, the “phosphorylation of immobilized peptide by HER2/ErbB2 (anodic current response)” value is “did not catalyze phosphorylation”.
